# Assay results published in patent US20050070694A1 (Eli Lilly, published 2005).
# B1: human antibody 4A5-3.1.1-B4 (antibody, V domains shown)
# VH: QVQLQQWGAGLLKPSETLSLTCAVYGGSFSGYYWSWIRQPPGKGLEWIGEINHSGSTNYNPSLKSRVTISVDTSKNQFSLKLSSVTAADTAVYYCARGYYDILTGYYYYFDYWGQGTLVTVSS
# VL: EIVLTQSPATLSLSPGERATLSCRASQSVSRYLAWYQQKPGQAPRLLIYDASNRATGIPARFSGSGSGTDSTLTISSLEPEDFAVYYCQQRSNWPRTFGQGTKVEIKR
# notes: Hybridoma-derived human monoclonal antibody from HuMAb mice, with a human kappa light chain; also called 4A5 mAb; 4A5-3.1.11-B4
# Experiments:
# [1] = target: Chimera D (human TNFSF13b L53V, K55R, E56Q) (human, UniProt Q9Y275 134-285); experiment: cell-based or functional assay
# [2] = target: Chimera E (human TNFSF13b E105K) (human, UniProt Q9Y275 134-285); experiment: cell-based or functional assay
# [3] = target: T1, recombinant soluble human TNFSF13b (hTNFSF13b) (human, UniProt Q9Y275 134-285); experiment: cell-based or functional assay
# [4] = target: Chimera A (human TNFSF13b L139R, D140N) (human, UniProt Q9Y275 134-285); experiment: cell-based or functional assay
# [5] = target: Chimera B (human TNFSF13b K71P, T72I, Y73F) (human, UniProt Q9Y275 134-285); experiment: cell-based or functional assay
# murine TNFSF13b = target: T2, murine TNFSF13b (mouse, UniProt Q9WU72 127-309); experiment: sandwich ELISA with 4A5-3.1.1-B4 as both capture and detecting mAb
# T2 construct: Used as supernatants of CHO cells or 293 transfectants expressing murine TNFSF13b, and as purified protein; also called Mouse TNFSF13b; mouse TNFSF13b parent molecule
# [6] = target: T1, recombinant soluble human TNFSF13b …; experiment: BIAcore 2000 SPR at 25 C; antibody captured by anti-human IgG Fc, hTNFSF13b as analyte from 50 nM in 2-fold dilutions; Langmuir 1:1 model
# T1 sequence (Q9Y275 134-285): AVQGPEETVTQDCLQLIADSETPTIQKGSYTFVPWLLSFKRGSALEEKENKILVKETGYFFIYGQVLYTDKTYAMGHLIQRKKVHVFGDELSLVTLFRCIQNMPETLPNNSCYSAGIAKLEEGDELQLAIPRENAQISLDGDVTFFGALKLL
# Chain of Chimera B (human TNFSF13b K71P, T72I, Y73F) (Q9Y275 134-285, stated change not applied): as the sequence (Q9Y275 134-285) above
# Chain of Chimera A (human TNFSF13b L139R, D140N) (Q9Y275 134-285, stated change not applied): as the sequence (Q9Y275 134-285) above
# Chain of Chimera D (human TNFSF13b L53V, K55R, E56Q) (Q9Y275 134-285, stated change not applied): as the sequence (Q9Y275 134-285) above
# Chain of Chimera E (human TNFSF13b E105K) (Q9Y275 134-285, stated change not applied): as the sequence (Q9Y275 134-285) above
# T2 sequence (Q9WU72 127-309 limits assumed): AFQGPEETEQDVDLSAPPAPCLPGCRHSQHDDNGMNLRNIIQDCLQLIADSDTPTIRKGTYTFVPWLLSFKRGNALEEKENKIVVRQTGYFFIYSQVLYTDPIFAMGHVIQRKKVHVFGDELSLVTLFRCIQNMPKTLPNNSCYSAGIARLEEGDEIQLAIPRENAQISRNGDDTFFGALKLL
binder,measurement,setting,value
B1,"neutralization of proliferation, 293 supernatants, 6 ug/ml of 4A5-3.1.1-B4",[1],100%
same,"neutralization of proliferation, 293 supernatants, 6 ug/ml of 4A5-3.1.1-B4",[2],100%
same,"neutralization of proliferation, 11 ng/ml purified TNFSF13b, 1 ug/ml of 4A5-3.1.1-B4",[3],100%
same,"neutralization of proliferation, 293 supernatants, 6 ug/ml of 4A5-3.1.1-B4",[3],100%
same,"neutralization of proliferation, 11 ng/ml purified TNFSF13b, 1 ug/ml of 4A5-3.1.1-B4",[4],100%
same,"neutralization of proliferation, 293 supernatants, 6 ug/ml of 4A5-3.1.1-B4",[4],100%
same,"neutralization of proliferation, 11 ng/ml purified TNFSF13b, 1 ug/ml of 4A5-3.1.1-B4",[5],88%
same,"neutralization of proliferation, 293 supernatants, 6 ug/ml of 4A5-3.1.1-B4",[5],100%
same,binding result,murine TNFSF13b,no binding
same,Kd,[6],0.038 nM
